In patent publication US20220204611A1 (Amgen, published 2022):

T1: human TREM2 (human, UniProt Q9NZC2 19-174, limits assumed)
T1 sequence: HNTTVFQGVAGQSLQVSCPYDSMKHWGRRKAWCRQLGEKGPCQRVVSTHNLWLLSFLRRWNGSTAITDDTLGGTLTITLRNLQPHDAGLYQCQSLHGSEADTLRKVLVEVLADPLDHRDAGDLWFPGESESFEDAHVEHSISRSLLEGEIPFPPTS


Key:
human TREM2 [1] = biological target: T1, human TREM2; test: yeast-displayed Fab FACS, 1st screen 110 nM
human TREM2 [2] = biological target: T1, human TREM2; test: yeast-displayed Fab FACS, 2nd screen 100 nM

Row | binding signal fold over 6E7 parental (human TREM2 [1]) | binding signal fold over 6E7 parental (human TREM2 [2]) | Binder
1 | 0.84 fold | 0.85 fold | V57 (Fab, V domains shown) VH: EVQLVQSGAEVKKPGESLKISCKGSGYSFTSYWIAWVRQMPGKGLEWMGIIYPGDSDTRYSPSFQGQVTISADKSISTAYLQWSSLKASDTAMYFCARQRTFYYDSSDYFDYWGQGTLVTVSS VL: DIQMTQSPSSVSASVGDRVTITCAASQGISSWLAWYQQKPGKAPKLLIYAASSLQNGVPSRFSGSGSGTDFTLTISSLQPEDFATYFCQQADSFPRTFGQGTKLEIK
2 | 0.86 fold | 1.11 fold | V78 (Fab, V domains shown) VH: EVQLVQSGAEVKKPGESLKISCKGSGYRFTSYWIAWVRQMPGKGLEWMGIIYPGDSDTRYSPSFQGQVTISADKSISTAYLQWSSLKASDTAMYFCARQRTFYYDSSDYFDYWGQGTLVTVSS VL: DIQMTQSPSSVSASVGDRVTITCRASQGISSWLAWYQQKPGKAPKLLIYAASSLQNGVPSRFSGSGSGTDFTLTISSLQPEDFATYFCQQADSFPRTFGQGTKLEIK
3 | 0.28 fold | 0.68 fold | V58 (Fab, V domains shown) VH: EVQLVQSGAEVKKPGESLKISCKGSGYSFTSYWIAWVRQMPGKGLEWMGIIYPGDSDTRYSPSFQGQVTISADKSISTAYLQWSSLKASDTAMYFCARQRTFYYDSSDYFDYWGQGTLVTVSS VL: DIQMTQSPSSVSASVGDRVTITCRASQGISSWLAWYQQKPGKAPKLLIYKASSLQNGVPSRFSGSGSGTDFTLTISSLQPEDFATYFCQQADSFPRTFGQGTKLEIK
4 | 0.37 fold | 0.48 fold | V71 (Fab, V domains shown) VH: EVQLVQSGAEVKKPGESLKISCKGSGYSFTSYWIAWVRQMPGKGLEWMGIIYPGDSDTRYSPSFQGQVTISADKSISTAYLQWSSLKASDTAMYFCARQRTFYYDSSDYFDYWGQGTLVTVSS VL: DIQMTQSPSSVSASVGDRVTITCRASQGISSWLAWYQQKPGKAPKLLIYAASSLQNGVPSRFSGSGSGTDFTLTISSLQPEDFATYFCQQADSEPRTFGQGTKLEIK
5 | 0.79 fold | 0.84 fold | V70 (Fab, V domains shown) VH: EVQLVQSGAEVKKPGESLKISCKGSGYSFTSYWIAWVRQMPGKGLEWMGIIYPGDSDTRYSPSFQGQVTISADKSISTAYLQWSSLKASDTAMYFCARQRTFYYDSSDYFDYWGQGTLVTVSS VL: DIQMTQSPSSVSASVGDRVTITCRASQGISSWLAWYQQKPGKAPKLLIYAAGSLQNGVPSRFSGSGSGTDFTLTISSLQPEDFATYFCQQADSFPRTFGQGTKLEIK
6 | 0.8 fold | 0.84 fold | V67 (Fab, V domains shown) VH: EVQLVQSGAEVKKPGESLKISCKGSGYSFTSYWIAWVRQMPGKGLEWMGMIYPGDSDTRYSPSFQGQVTISADKSISTAYLQWSSLKASDTAMYFCARQRTFYYDSSDYFDYWGQGTLVTVSS VL: DIQMTQSPSSVSASVGDRVTITCRASQGISSWLAWYQQKPGKAPKLLIYAASSLQNGVPSRFSGSGSGTDFTLTISSLQPEDFATYFCQQADSFPRTFGQGTKLEIK
7 | 0.25 fold | 0.61 fold | V91 (Fab, V domains shown) VH: EVQLVQSGAEVKKPGESLKISCKGSGYSFTSYWIAWVRQMPGKGLEWMGIIYPDDSDTRYSPSFQGQVTISADKSISTAYLQWSSLKASDTAMYFCARQRTFYYDSSDYFDYWGQGTLVTVSS VL: DIQMTQSPSSVSASVGDRVTITCRASQGISSWLAWYQQKPGKAPKLLIYAASSLQNGVPSRFSGSGSGTDFTLTISSLQPEDFATYFCQQADSFPRTFGQGTKLEIK
8 | 0.35 fold | 1.05 fold | V93 (Fab, V domains shown) VH: EVQLVQSGAEVKKPGESLKISCKGSGYSFTSYWIAWVRQMPGKGLEWMGIIYPGDSDTRYSPSFQGQVTISADKSISTAYLQWSSLKASDTAMYFCARQRTFYYDSSDYFDYWGQGTLVTVSS VL: DIQMTQSPSSVSASVGDRVTITCRASQGISGWLAWYQQKPGKAPKLLIYAASSLQNGVPSRFSGSGSGTDFTLTISSLQPEDFATYFCQQADSFPRTFGQGTKLEIK
9 | 0.22 fold | 0.65 fold | V92 (Fab, V domains shown) VH: EVQLVQSGAEVKKPGESLKISCKGSGYSFTSYWIAWVRQMPGKGLEWMGIIYPGDSDTRYSPSFQGQVTISADKSISTAYLQWSSLKASDTAMYFCARQRTFHYDSSDYFDYWGQGTLVTVSS VL: DIQMTQSPSSVSASVGDRVTITCRASQGISSWLAWYQQKPGKAPKLLIYAASSLQNGVPSRFSGSGSGTDFTLTISSLQPEDFATYFCQQADSFPRTFGQGTKLEIK
10 | 0.7 fold | 0.52 fold | V79 (Fab, V domains shown) VH: EVQLVQSGAEVKKPGESLKISCKGSGYSFTSYWIAWVRQMPGKGLEWMGIIYPGDSDTNYSPSFQGQVTISADKSISTAYLQWSSLKASDTAMYFCARQRTFYYDSSDYFDYWGQGTLVTVSS VL: DIQMTQSPSSVSASVGDRVTITCRASQGISSWLAWYQQKPGKAPKLLIYAASSLQNGVPSRFSGSGSGTDFTLTISSLQPEDFATYFCQQADSFPRTFGQGTKLEIK
11 | 0.19 fold | 0.6 fold | V59 (Fab, V domains shown) VH: EVQLVQSGAEVKKPGESLKISCKGSGYSFTSYWIAWVRQMPGKGLEWMGIIYPGDSDTRYSPSFQGQVTISADKSISTAYLQWSSLKASDTAMYFCARQRTFYYDSSDYFDYWGQGTLVTVSS VL: DIQMTQSPSSVSASVGDRVTITCRASQGISSWLAWYQQKPGKAPKLLIYAASSLQNGVPSRFSGSGSGTDFTLTISSLQPEDFATYFCMQADSFPRTFGQGTKLEIK
12 | 0.17 fold | 0.23 fold | V81 (Fab, V domains shown) VH: EVQLVQSGAEVKKPGESLKISCKGSGYSFTSYWIAWVRQMPGKGLEWMGIIYPGDSDTRYSPSFQGQVTISADKSISTAYLQWSSLKASDTAMYFCARQRTFYYDSSDYFDYWGQGTLVTVSS VL: DIQMTQSPSSVSASVGDRVTITCRASQGISSLLAWYQQKPGKAPKLLIYAASSLQNGVPSRFSGSGSGTDFTLTISSLQPEDFATYFCQQADSFPRTFGQGTKLEIK
13 | 0.41 fold | 0.4 fold | V69 (Fab, V domains shown) VH: EVQLVQSGAEVKKPGESLKISCKGSGYSFTSYWIAWVRQMPGKGLEWMGIIYPGDSDTRYSPSFQGQVTISADKSISTAYLQWSSLKASDTAMYFCARQRTFYYDSSDYFDYWGQGTLVTVSS VL: DIQMTQSPSSVSASVGDRVTITCRASQGISSYLAWYQQKPGKAPKLLIYAASSLQNGVPSRFSGSGSGTDFTLTISSLQPEDFATYFCQQADSFPRTFGQGTKLEIK
14 | 0.3 fold | 0.79 fold | V82 (Fab, V domains shown) VH: EVQLVQSGAEVKKPGESLKISCKGSGYSFTSYWIAWVRQMPGKGLEWMGIIYPGDSDTRYSPSFQGQVTISADKSISTAYLQWSSLKASDTAMYFCARQRTFYYDSSDYFDYWGQGTLVTVSS VL: DIQMTQSPSSVSASVGDRVTITCRASQGISSWLAWYQQKPGKAPKLLIYAGSSLQNGVPSRFSGSGSGTDFTLTISSLQPEDFATYFCQQADSFPRTFGQGTKLEIK
15 | 0.25 fold | 0.74 fold | V66 (Fab, V domains shown) VH: EVQLVQSGAEVKKPGESLKISCKGSGTSFTSYWIAWVRQMPGKGLEWMGIIYPGDSDTRYSPSFQGQVTISADKSISTAYLQWSSLKASDTAMYFCARQRTFYYDSSDYFDYWGQGTLVTVSS VL: DIQMTQSPSSVSASVGDRVTITCRASQGISSWLAWYQQKPGKAPKLLIYAASSLQNGVPSRFSGSGSGTDFTLTISSLQPEDFATYFCQQADSFPRTFGQGTKLEIK
16 | 0.59 fold | 0.5 fold | V80 (Fab, V domains shown) VH: EVQLVQSGAEVKKPGESLKISCKGSGYSFTSYWIAWVRQMPGKGLEWMGIIYPGDSDTRYSPSFQGQVTISADKSISTAYLQWSSLKASDTAMYFCARQRNFYYDSSDYFDYWGQGTLVTVSS VL: DIQMTQSPSSVSASVGDRVTITCRASQGISSWLAWYQQKPGKAPKLLIYAASSLQNGVPSRFSGSGSGTDFTLTISSLQPEDFATYFCQQADSFPRTFGQGTKLEIK
17 | 0.33 fold | 0.36 fold | V90 (Fab, V domains shown) VH: EVQLVQSGAEVKKPGESLKISCKGSGYSFTSEWIAWVRQMPGKGLEWMGIIYPGDSDTRYSPSFQGQVTISADKSISTAYLQWSSLKASDTAMYFCARQRTFYYDSSDYFDYWGQGTLVTVSS VL: DIQMTQSPSSVSASVGDRVTITCRASQGISRWLAWYQQKPGKAPKLLIYAASSLQNGVPSRFSGSGSGTDFTLTISSLQPEDFATYFCQQADSFPRTFGQGTKLEIK
18 | 0.44 fold | 0.43 fold | V68 (Fab, V domains shown) VH: EVQLVQSGAEVKKPGESLKISCKGSGYSFTSYWIAWVRQMPGKGLEWMGIIYPGDSDTRYSPSFQGQVTISADKSISTAYLQWSSLKASDTAMYFCARQRTFRYDSSDYFDYWGQGTLVTVSS VL: DIQMTQSPSSVSASVGDRVTITCRASQGISSWLAWYQQKPGKAPKLLIYAASSLQNGVPSRFSGSGSGTDFTLTISSLQPEDFATYFCQQADSFPRTFGQGTKLEIK
19 | 0.2 fold | 0.29 fold | V83 (Fab, V domains shown) VH: EVQLVQSGAEVKKPGESLKISCKGSGYSFTSYWIAWVRQMPGKGLEWMGIIYPGDSDTRYSPSFQGQVTISADKSISTAYLQWSSLKASDTAMYFCARQRTFYYDSSDYFDYWGQGTLVTVSS VL: DIQMTQSPSSVSASVGDRVTITCRASQGISSWLAWYQQKPGKAPKLLIYAASSLQNGVPSRFSGSGSGTDFTLTISSLQPEDFATYFCQQAVSFPRTFGQGTKLEIK
